Assay results from publication PMC4020902.

Molecular target: human USP11 N-terminal DUSP-UBL (DU) domains, residues 24-244 (human)
Assay: SEC; gel filtration of hUSP11DU at concentrations associated with crystallization

fraction of dimer: 5%
Substance: human USP11 N-terminal DUSP-UBL (DU) domains, residues 24-244 (domain or fragment)
